Laboratory results from patent EP3932948A1 (Sunshine Guojian Pharmaceutical (Shanghai) Co., Ltd., dated 2022).

Tests used:
[1] = target: T1, LAG-3 on the cell surface of SEA-activated human PBMC (activated T cells) (human, UniProt P18627 23-525); assay: flow cytometry, biotinylated antibody on SEA-activated human PBMC, PE-Streptavidin detection
T1 construct: whole, on cells
T1 sequence (looked up): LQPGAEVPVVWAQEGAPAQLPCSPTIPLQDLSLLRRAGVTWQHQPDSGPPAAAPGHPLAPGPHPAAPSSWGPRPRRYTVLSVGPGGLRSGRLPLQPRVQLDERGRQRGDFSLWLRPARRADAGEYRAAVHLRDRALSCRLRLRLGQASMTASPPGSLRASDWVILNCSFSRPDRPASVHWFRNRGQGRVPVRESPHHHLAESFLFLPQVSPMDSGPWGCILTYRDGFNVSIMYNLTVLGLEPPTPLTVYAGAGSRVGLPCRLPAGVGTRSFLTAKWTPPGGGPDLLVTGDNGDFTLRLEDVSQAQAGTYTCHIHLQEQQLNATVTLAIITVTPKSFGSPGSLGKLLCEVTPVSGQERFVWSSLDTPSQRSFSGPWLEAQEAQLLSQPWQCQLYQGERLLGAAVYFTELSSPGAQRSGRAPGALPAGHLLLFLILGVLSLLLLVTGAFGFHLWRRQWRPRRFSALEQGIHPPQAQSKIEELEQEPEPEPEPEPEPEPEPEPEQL

[2] = target: T2, LAG-3-ECD-His (LAG-3 extracellular segment with His tag, purchased from Sino Biological Inc.) (UniProt P18627 23-450); assay: ELISA, plate coated with LAG-3-ECD-His (10 ng/well), anti-human IgG (Fc) detection
T2 construct: extracellular domain; not shown: His tag
T2 sequence (looked up): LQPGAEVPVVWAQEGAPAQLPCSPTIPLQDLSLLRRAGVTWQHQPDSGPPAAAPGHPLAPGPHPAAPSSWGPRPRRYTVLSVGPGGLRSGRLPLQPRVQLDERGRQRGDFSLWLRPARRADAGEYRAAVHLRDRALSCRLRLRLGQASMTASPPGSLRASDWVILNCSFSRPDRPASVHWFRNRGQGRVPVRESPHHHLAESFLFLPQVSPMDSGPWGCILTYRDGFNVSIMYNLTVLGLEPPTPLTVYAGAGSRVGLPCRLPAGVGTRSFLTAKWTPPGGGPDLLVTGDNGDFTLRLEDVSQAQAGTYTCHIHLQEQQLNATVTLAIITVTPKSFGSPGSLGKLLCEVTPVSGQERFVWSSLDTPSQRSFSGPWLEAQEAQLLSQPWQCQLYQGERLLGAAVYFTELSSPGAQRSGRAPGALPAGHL

[3] = target: T3, full-length human LAG-3 on CHO-S cells (CHO-S-LAG-3) (human, UniProt P18627 23-525); assay: flow cytometry, blocking of Biotin-FGL1-hFc (2 ug/ml) binding to CHO-S-LAG-3 cells
T3 construct: whole, on cells
T3 sequence (looked up): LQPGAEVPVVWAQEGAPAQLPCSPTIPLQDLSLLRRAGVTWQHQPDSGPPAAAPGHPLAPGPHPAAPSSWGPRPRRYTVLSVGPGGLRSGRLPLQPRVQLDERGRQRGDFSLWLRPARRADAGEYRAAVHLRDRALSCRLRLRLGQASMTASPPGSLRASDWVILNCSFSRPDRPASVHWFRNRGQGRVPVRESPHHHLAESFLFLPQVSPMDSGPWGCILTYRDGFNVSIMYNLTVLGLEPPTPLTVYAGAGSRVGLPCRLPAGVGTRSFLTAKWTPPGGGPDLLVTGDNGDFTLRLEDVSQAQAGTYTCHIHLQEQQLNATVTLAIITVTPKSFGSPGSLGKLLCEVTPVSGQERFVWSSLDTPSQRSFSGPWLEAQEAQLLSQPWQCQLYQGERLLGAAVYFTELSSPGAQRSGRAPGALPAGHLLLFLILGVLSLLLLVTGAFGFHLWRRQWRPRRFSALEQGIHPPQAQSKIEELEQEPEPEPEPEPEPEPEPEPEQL

[4] = target: T4, recombinant LAG-3 (purchased from SinoBiological, Cat. No.: 16498-H08H) (human, UniProt P18627 23-450); assay: SPR (Biacore 8K), antibody captured on Protein A chip, recombinant LAG-3 as analyte
T4 construct: also called human LAG-3
T4 sequence (looked up): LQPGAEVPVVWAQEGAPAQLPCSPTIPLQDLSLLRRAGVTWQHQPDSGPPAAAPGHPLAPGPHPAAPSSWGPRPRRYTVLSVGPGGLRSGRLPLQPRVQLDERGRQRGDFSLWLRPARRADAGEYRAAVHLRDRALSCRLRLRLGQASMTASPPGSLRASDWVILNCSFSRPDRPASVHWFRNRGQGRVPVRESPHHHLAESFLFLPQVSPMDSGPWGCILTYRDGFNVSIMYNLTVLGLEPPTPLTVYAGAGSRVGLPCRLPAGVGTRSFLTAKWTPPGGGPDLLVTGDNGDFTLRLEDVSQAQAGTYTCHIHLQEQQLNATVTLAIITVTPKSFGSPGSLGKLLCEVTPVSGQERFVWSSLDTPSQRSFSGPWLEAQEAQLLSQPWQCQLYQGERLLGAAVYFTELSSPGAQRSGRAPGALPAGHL

[5] = target: T1, LAG-3 on the cell surface of …; assay: cell-based or functional assay

B1: 5E7-Hu-IgG4 (antibody, V domains shown)
VH: EVQLVESGGGLVKPGGSLRLSCAASGFTFSDDYMAWFRQAPGKRLEWVASISHGGDYIYYADNLKGRFTISRDNAKNSLYLQMNSLRAEDTAVYFCSRDRRSIDYWGQGTLVTVSS
VL: DIQMTQSPSSLSASVGDRVTITCRASQDISNYLSWYQQKPGKTIKLLIYYTSRLHSGVPSRFSGSGSGTDYTFTISSLQPEDIATYFCQQGKTLPYTFGQGTKVEIKR
modifications: Biotinylated with NHS-biotin only for the flow cytometry of Example 7 (positions not defined).
notes: also called humanized antibody No. 5E7; 5E7-Hu-IgG4-HC + 5E7-Hu-LC
EC50 [1]: 0.0531 µg/mL | EC50 [2]: 0.00908 µg/mL | IC50 [3]: 0.0977 µg/mL | Kd [4]: 4.17 pM | koff [4]: 1.84e-05 s⁻¹ | kon [4]: 4.41e+06 M⁻¹ s⁻¹ | EC50 of enhancing the secretion of IL-2 by SEA-stimulated PBMC (Fig. 3A) [5]: 0.0781 µg/mL | EC50 of enhancing the secretion of IL-2 by SEA-stimulated PBMC (Fig. 3B) [5]: 0.00307 µg/mL
